The values that follow come from PMC3981819, “Signaling Properties and Pharmacological Analysis of Two Sulfakinin Receptors from the Red Flour Beetle, Tribolium castaneum” (PLoS ONE, 2014).

Square brackets hold non-standard residues; d marks the D form. Ends that are not written are not given here. * marks the point of attachment. SO3H = sulfate on Tyr (sulfated tyrosine), O=S(=O)(O)*; sY = N[C@@H](Cc1ccc(OS(=O)(=O)O)cc1)C(=O)O; pGlu = O=C1CC[C@@H](C(=O)O)N1

To fix the notation:
B1: sulfated C-terminal fragment of T. castaneum SK comprising amino acids 5–13 (peptide)
peptide: FDDY(SO3H)GHMRF-NH2
modifications: N-terminus assumed
SMILES: CSCC[C@H](NC(=O)[C@H](Cc1c[nH]cn1)NC(=O)CNC(=O)[C@H](Cc1ccc(OS(=O)(=O)O)cc1)NC(=O)[C@H](CC(=O)O)NC(=O)[C@H](CC(=O)O)NC(=O)[C@@H](N)Cc1ccccc1)C(=O)N[C@@H](CCCNC(=N)N)C(=O)N[C@@H](Cc1ccccc1)C(N)=O
B2: sulfated SK from the migratory locust, Locusta migratoria (peptide)
peptide: [pGlu]LASDDY(SO3H)GHMRF-NH2
SMILES: CSCC[C@H](NC(=O)[C@H](Cc1c[nH]cn1)NC(=O)CNC(=O)[C@H](Cc1ccc(OS(=O)(=O)O)cc1)NC(=O)[C@H](CC(=O)O)NC(=O)[C@H](CC(=O)O)NC(=O)[C@H](CO)NC(=O)[C@H](C)NC(=O)[C@H](CC(C)C)NC(=O)[C@@H]1CCC(=O)N1)C(=O)N[C@@H](CCCNC(=N)N)C(=O)N[C@@H](Cc1ccccc1)C(N)=O
B3: 1569[φ2]wp-4 (peptide)
peptide: PVD[sY]DRPIMAF-NH2
modifications: N-terminus assumed
SMILES: CC[C@H](C)[C@H](NC(=O)[C@@H]1CCCN1C(=O)[C@H](CCCNC(=N)N)NC(=O)[C@H](CC(=O)O)NC(=O)[C@H](Cc1ccc(OS(=O)(=O)O)cc1)NC(=O)[C@H](CC(=O)O)NC(=O)[C@@H](NC(=O)[C@@H]1CCCN1)C(C)C)C(=O)N[C@@H](CCSC)C(=O)N[C@@H](C)C(=O)N[C@@H](Cc1ccccc1)C(N)=O
B4: 1678B[φ1]wp-6 (peptide)
peptide: DG[sY]RPLQF-NH2
modifications: N-terminus assumed
SMILES: CC(C)C[C@H](NC(=O)[C@@H]1CCCN1C(=O)[C@H](CCCNC(=N)N)NC(=O)[C@H](Cc1ccc(OS(=O)(=O)O)cc1)NC(=O)CNC(=O)[C@@H](N)CC(=O)O)C(=O)N[C@@H](CCC(N)=O)C(=O)N[C@@H](Cc1ccccc1)C(N)=O
B5: 1567[φ1]wp-5 (peptide)
peptide: SPVD[sY]DRPIMAF-NH2
modifications: N-terminus assumed
SMILES: CC[C@H](C)[C@H](NC(=O)[C@@H]1CCCN1C(=O)[C@H](CCCNC(=N)N)NC(=O)[C@H](CC(=O)O)NC(=O)[C@H](Cc1ccc(OS(=O)(=O)O)cc1)NC(=O)[C@H](CC(=O)O)NC(=O)[C@@H](NC(=O)[C@@H]1CCCN1C(=O)[C@@H](N)CO)C(C)C)C(=O)N[C@@H](CCSC)C(=O)N[C@@H](C)C(=O)N[C@@H](Cc1ccccc1)C(N)=O
B6: 1679[φ1]wp-4 (peptide)
peptide: [pGlu]PS[sY]DRDIMSF-NH2
SMILES: CC[C@H](C)[C@H](NC(=O)[C@H](CC(=O)O)NC(=O)[C@H](CCCNC(=N)N)NC(=O)[C@H](CC(=O)O)NC(=O)[C@H](Cc1ccc(OS(=O)(=O)O)cc1)NC(=O)[C@H](CO)NC(=O)[C@@H]1CCCN1C(=O)[C@@H]1CCC(=O)N1)C(=O)N[C@@H](CCSC)C(=O)N[C@@H](CO)C(=O)N[C@@H](Cc1ccccc1)C(N)=O
B7: 1835[φ2]wp-4 (peptide)
peptide: SDD[sY]GHMRF-NH2
modifications: N-terminus assumed
SMILES: CSCC[C@H](NC(=O)[C@H](Cc1c[nH]cn1)NC(=O)CNC(=O)[C@H](Cc1ccc(OS(=O)(=O)O)cc1)NC(=O)[C@H](CC(=O)O)NC(=O)[C@H](CC(=O)O)NC(=O)[C@@H](N)CO)C(=O)N[C@@H](CCCNC(=N)N)C(=O)N[C@@H](Cc1ccccc1)C(N)=O
B8: 1678A[φ1]wp-4 (peptide)
peptide: D[sY]RPLQF-NH2
modifications: N-terminus assumed
SMILES: CC(C)C[C@H](NC(=O)[C@@H]1CCCN1C(=O)[C@H](CCCNC(=N)N)NC(=O)[C@H](Cc1ccc(OS(=O)(=O)O)cc1)NC(=O)[C@@H](N)CC(=O)O)C(=O)N[C@@H](CCC(N)=O)C(=O)N[C@@H](Cc1ccccc1)C(N)=O

The target of the first assay is Tribolium castaneum sulfakinin receptor 2 (T. castaneum).
For the molecule B1, the EC50 of CRE-luciferase bioluminescence (cAMP) in HEK293T cells cotransfected with the receptor came to 1.4 nM.

For the next assay, the target named is Tribolium castaneum sulfakinin receptor 1 (T. castaneum).
As for B1, the EC50 of CRE-luciferase bioluminescence (cAMP) in HEK293T cells cotransfected with the receptor stood at 0.0049 nM.

A further assay concerns the target Tribolium castaneum sulfakinin receptor 2 (T. castaneum). This is another data set of the same source.
The molecule YGHMRF-NH2 (ends and bridges not checked) [2011[φ1]wp-1] registered an aequorin bioluminescence in CHO-WTA11 cells transfected with the receptor, peptide at 1 μM, % of the response to 1 μM sTrica-SK(5–13) of 21.2%.
FDDAGHMRF-NH2 [2008[φ1]wp-2] yielded an aequorin bioluminescence in CHO-WTA11 cells transfected with the receptor, peptide at 1 μM, % of the response to 1 μM sTrica-SK(5–13) of 12.1%.
Consider SPVDYDRPIMAF-NH2 [1432-2[φ]wp-6], for which the aequorin bioluminescence in CHO-WTA11 cells transfected with the receptor, peptide at 1 μM, % of the response to 1 μM sTrica-SK(5–13) amounted to 11.2%.
B2: the aequorin bioluminescence in CHO-WTA11 cells transfected with the receptor, peptide at 1 μM, % of the response to 1 μM sTrica-SK(5–13) stood at 79.9%.
With B3, the aequorin bioluminescence in CHO-WTA11 cells transfected with the receptor, peptide at 1 μM, % of the response to 1 μM sTrica-SK(5–13) is 13.4%.
Regarding GHMRF-NH2 [2053[φ1]wp-4], the aequorin bioluminescence in CHO-WTA11 cells transfected with the receptor, peptide at 1 μM, % of the response to 1 μM sTrica-SK(5–13) is 44.6%.
In turn, FDDYGHMR-NH2 (ends and bridges not checked) [2076[φ1]wp-2] came in with an aequorin bioluminescence in CHO-WTA11 cells transfected with the receptor, peptide at 1 μM, % of the response to 1 μM sTrica-SK(5–13) of 19.7%.
On the same count and under the same terms, the value for DDYGHMRF-NH2 (ends and bridges not checked) [2009[φ1]wp-1] was 17.1%; that for DYGHMRF-NH2 (ends and bridges not checked) [2010[φ1]wp-1] was 8.6%; that for B4 was 19.9%.
Molecule B5 returned an aequorin bioluminescence in CHO-WTA11 cells transfected with the receptor, peptide at 1 μM, % of the response to 1 μM sTrica-SK(5–13) of 33.7%.
For B1, the aequorin bioluminescence in CHO-WTA11 cells transfected with the receptor, peptide at 1 μM, % of the response to 1 μM sTrica-SK(5–13) (this peptide is the 100% reference) stood at 100%.
In turn, B6 returned an aequorin bioluminescence in CHO-WTA11 cells transfected with the receptor, peptide at 1 μM, % of the response to 1 μM sTrica-SK(5–13) of 16.6%.
Consider B7, for which the aequorin bioluminescence in CHO-WTA11 cells transfected with the receptor, peptide at 1 μM, % of the response to 1 μM sTrica-SK(5–13) is 41.4%.
B8 showed an aequorin bioluminescence in CHO-WTA11 cells transfected with the receptor, peptide at 1 μM, % of the response to 1 μM sTrica-SK(5–13) of 32.6%.
Regarding HMRF-NH2 [2052[φ1]wp-3], the aequorin bioluminescence in CHO-WTA11 cells transfected with the receptor, peptide at 1 μM, % of the response to 1 μM sTrica-SK(5–13) is 33.4%.

For the next assay, the target named is Tribolium castaneum sulfakinin receptor 1 (T. castaneum). This is another data set of the same source.
Consider YGHMRF-NH2 (ends and bridges not checked) [2011[φ1]wp-1], for which the aequorin bioluminescence in CHO-WTA11 cells transfected with the receptor, peptide at 1 μM, % of the response to 1 μM sTrica-SK(5–13) stood at 26.3%.
FDDAGHMRF-NH2 [2008[φ1]wp-2] came in with an aequorin bioluminescence in CHO-WTA11 cells transfected with the receptor, peptide at 1 μM, % of the response to 1 μM sTrica-SK(5–13) of 10.1%.
SPVDYDRPIMAF-NH2 [1432-2[φ]wp-6] gave an aequorin bioluminescence in CHO-WTA11 cells transfected with the receptor, peptide at 1 μM, % of the response to 1 μM sTrica-SK(5–13) of 16.4%.
B2 showed an aequorin bioluminescence in CHO-WTA11 cells transfected with the receptor, peptide at 1 μM, % of the response to 1 μM sTrica-SK(5–13) of 75%.
On the same count and under the same terms, the value for B3 was 6.2%; that for GHMRF-NH2 [2053[φ1]wp-4] was 13.3%; that for FDDYGHMR-NH2 (ends and bridges not checked) [2076[φ1]wp-2] was 25.8%.
The molecule DDYGHMRF-NH2 (ends and bridges not checked) [2009[φ1]wp-1] displayed an aequorin bioluminescence in CHO-WTA11 cells transfected with the receptor, peptide at 1 μM, % of the response to 1 μM sTrica-SK(5–13) of 27.2%.
On the same count and under the same terms, the value for DYGHMRF-NH2 (ends and bridges not checked) [2010[φ1]wp-1] was 7.6%.
On to B4, for which the aequorin bioluminescence in CHO-WTA11 cells transfected with the receptor, peptide at 1 μM, % of the response to 1 μM sTrica-SK(5–13) is 28.5%.
Same read-out and setting: the result for B5 reads 23.6%.
B1: the aequorin bioluminescence in CHO-WTA11 cells transfected with the receptor, peptide at 1 μM, % of the response to 1 μM sTrica-SK(5–13) (this peptide is the 100% reference) is 100%.
Take B6: the aequorin bioluminescence in CHO-WTA11 cells transfected with the receptor, peptide at 1 μM, % of the response to 1 μM sTrica-SK(5–13) turned out to be 16.5%.
Molecule B7 showed an aequorin bioluminescence in CHO-WTA11 cells transfected with the receptor, peptide at 1 μM, % of the response to 1 μM sTrica-SK(5–13) of 58.2%.
Still for that read-out and setting: the result for B8 reads 40.8%; that for HMRF-NH2 [2052[φ1]wp-3], 43.4%.

The target in the next assay is Tribolium castaneum sulfakinin receptor 2 (T. castaneum). The source holds these as a separate data set.
Take B1: the EC50 of aequorin bioluminescence (Ca2+) in CHO-PAM28 cells (no Gα16) transfected with the receptor worked out at 1.61 nM.

Another assay concerns the target Tribolium castaneum sulfakinin receptor 1 (T. castaneum). This is another data set of the same source.
The molecule B1 gave an EC50 of aequorin bioluminescence (Ca2+) in CHO-PAM28 cells (no Gα16) transfected with the receptor of 0.0585 nM.

For another assay, the target named is Tribolium castaneum sulfakinin receptor 2 (T. castaneum). This is another data set of the same source.
B2: the EC50 of aequorin bioluminescence (Ca2+) in CHO-WTA11 cells (Gα16) transfected with the receptor, peptide 1 fM to 1 μM was determined as 776 nM.
In turn, B1 showed an EC50 of aequorin bioluminescence (Ca2+) in CHO-WTA11 cells (Gα16) transfected with the receptor, peptide 1 fM to 1 μM of 0.524 nM.

A further assay concerns the target Tribolium castaneum sulfakinin receptor 1 (T. castaneum). The source holds these as a separate data set.
Regarding B2, the EC50 of aequorin bioluminescence (Ca2+) in CHO-WTA11 cells (Gα16) transfected with the receptor, peptide 1 fM to 1 μM is 16.8 nM.
B1 came in with an EC50 of aequorin bioluminescence (Ca2+) in CHO-WTA11 cells (Gα16) transfected with the receptor, peptide 1 fM to 1 μM of 0.0995 nM.
